Source: article PMC9164213 (Nature, 2021)

Molecular target: the molecule itself
Test: cryo-EM structure

B1: GsuCas4/Cas1 (Geobacter sulfurreducens type I-G Cas4/Cas1 natural fusion), tag cleaved (natural protein)
chain: MAETDGSIPLIPVRMLNEHVYCPRLAYLMWVQGEFSHNEFTVDGVIRHRRVDAGGGVLPSETQEDSRIHARSVSLSSERLGITAKIDLVEGEGAYVSPVDYKRGKRPHVAGGAYEPERVQLCAQGLLLREHGFASDGGALYFVASRERVPVAFDDELIGRTLAAIDEMGRTALSGTMPPPLEDSPKCPRCSLVGICLPDEVRFLSHLSVEPRPIIPADGRGLPLYVQSPKAYVRKDGDCLVIEEERVRVAEARLGETSQVALFGNATLTTAALHECLRREIPVTWLSYGGWFMGHTVSTGHRNVETRTYQYQRSFDPETCLNLARRWIVAKIANCRTLLRRNWRGEGDEAKAPPGLLMSLQDDMRHAMRAPSLEVLLGIEGASAGRYFQHFSRMLRGGDGEGMGFDFTTRNRRPPKDPVNALLSFAYAMLTREWTVALAAVGLDPYRGFYHQPRFGRPALALDMMEPFRPLIADSTVLMAINNGEIRTGDFVRSAGGCNLTDSARKRFIAGFERRMEQEVTHPIFKYTISYRRLLEVQARLLTRYLSGEIPAYPNFVTR
stoichiometry N: 2

B2: GsuCas2 (Geobacter sulfurreducens Cas2), tag cleaved (natural protein)
chain: MEHLYIVSYDIRNQRRWRRLFKTMHGFGCWLQLSVFQCRLDRIRIIKMEAAINEIVNHAEDHVLILDLGPAENVKPKVSSIGKTFDPILRQAVIV
stoichiometry N: 2
